Laboratory results taken from the supplement of paper PMC12042874.
± gives the uncertainty stated by the source.

Assay: amyloid nucleation score (Sup35N fusion, yeast selection) (log enrichment); library NNK1; higher = more nucleation; inactive = no reads after selection
How it was run: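 Psi-negative yeast expressed Sup35N fused to peptides of 20 random codons. They were induced 24 hours with 100 μM copper sulfate, grown 7 days at 30°C without adenine and uracil, and their plasmid inserts from input and output were Illumina-sequenced. The nucleation score is the DiMSum log enrichment of output over input reads, centred on the mode score of non-aggregating sequences. Sequences with under 100 input reads were excluded.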

Substance | amyloid nucleation score
YVSTIN | 0.629 ± 0.42
YVSYVCLDWM | 6.7 ± 0.068
YVTDVDF | inactive
YVVIAEPGYSRDMISLMERC | -1.16 ± 1.3
YVVWDICKRVLLQWRYPPFS | -0.077 ± 1.7
YVWDFRKLLYPAGWMSESVR | -0.346 ± 1
YWDEIRCNSKNFDPCPFKAS | 0.54 ± 0.19
YWGFGYPMFLNINMCLTSPE | 6.21 ± 0.091
YWICRDTGSYDFCMMGMGKA | 0.335 ± 0.34
YWKMRCM | 3.47 ± 0.19
YWLSSVHSQSRVAK | -0.298 ± 1.7
YWNDVAS | -0.931 ± 0.75
YWNRRYIGTPLNM | -1.73 ± 2.7
YWRNKGVVCGLCYDIVR | -0.019 ± 0.97
YWRVVGITIWVVQDLIFGEG | -0.783 ± 1
YYGYVLFQGFSM | 1.82 ± 0.19
YYLIMP | 0.322 ± 0.41
YYMLGYLDSYLWSENDLWMC | 0.642 ± 0.36
YYNFLLIIFNCCKVMS | 3.5 ± 0.11
YYNLTSGPFKGGCWQRYF | -0.205 ± 0.32
